The test concerns the target M2e-VHH-23m (llama). Kind of test: ITC.

Sequence of M2e-VHH-23m (llama) (VHH, as listed by the source): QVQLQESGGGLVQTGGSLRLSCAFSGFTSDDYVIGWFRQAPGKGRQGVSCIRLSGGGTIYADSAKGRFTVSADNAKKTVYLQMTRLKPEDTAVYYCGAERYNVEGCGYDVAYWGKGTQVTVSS

As for SLLTEVETPIRNEWGCRCNDSSD [human H3N2 M2e peptide], the Ka stood at 1.37e+06 M⁻¹.

Values taken from article PMC6921966 (2019).
